Test results taken from the supplement of paper PMC12636428.

The sequences below were run on Saccharomyces cerevisiae (assay: transcriptional activation domain activity (GFP:mCherry ratio, weighted mean of sorted bins, harmonized to initial dataset scale) (arbitrary fluorescence ratio units); higher = stronger transcriptional activation). Conditions: beta-estradiol 1 µM; induction time 4 h.
Method in brief: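 Values are activation activity, found as the read-weighted mean of bin median fluorescence, averaged across barcodes and then mapped linearly onto the initial dataset scale. Barcoded protein tiles fused to an estradiol-inducible synthetic transcription factor were integrated at the URA3 locus of GFP-reporter yeast diploids. Cells were induced for 4 hours at 30 °C with 1 uM beta-estradiol in SC, sorted into 8 bins by GFP:mCherry ratio, and barcode-sequenced, with tiles under 50 reads discarded.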
With “LLRSRAYDDPAVFRIISALFQVPMRHKKNSVRGLLCVVWRVITWVYFQPRLPW” the “transcriptional activation domain activity” value was 54600. For “NSLYLLPTAMTGEKPVADPLTLIRYILVWFPHIWCVICIHCHWPYFLFLNLTD”, the “transcriptional activation domain activity” value was 78400. “SATPATSEAAKPATSSLFGNGSSTTTAGATAAKPSLFGAAQSTPTTQPATTGA” was tested, and the “transcriptional activation domain activity” value was 38800. With “IVCRTEKTSHMLIDFSEHLRINVYVLGATFVRLVHLLKVKIPLVDPVLYIVRF” the “transcriptional activation domain activity” value was 59900. With “FLSTFFIIPLDVMCRKAVLCCNKHFLPFLMVSMGPRFHSPHFSLNTFCHRLFF” the “transcriptional activation domain activity” value was 47300. “LSNANHWKFIHIDEDGKLWRSNEFLLDLRLYNQDQVVIIYRFLHYVVKCCYES” was tested, and the “transcriptional activation domain activity” value was 54300. With “MMACLVSGIGWCLLYFTCMYLLLIYYILSLFYPPLASCNSFSFFFLSFFFFAG” the “transcriptional activation domain activity” value was 67200. With “VPRKLTASIHHPVEGLFYGTYWVSISLILNCAHAYGVPSSGPWLVRALEVCFW” the “transcriptional activation domain activity” value was 64800. “MATFLSCLRPFVCSFFLFSFLFRPWPWVYIHVGFGGNSCSTFDFLSIFFVTFF” was tested, and the “transcriptional activation domain activity” value was 43300. For “MFTRYLLLLLFAPLIYILGFFAASLSTHQPDYFYTWTRDSALVAQTNDTLLHD”, the “transcriptional activation domain activity” value was 30900. With “RQLFIRGRMQTIMLDCFLELCYRGACSLSSFEHPINWFEAPSDCLIWIRRMMY” the “transcriptional activation domain activity” value was 36600. With “AILLFIELASMGGFTWHLLSGLFFGDVCLIYMDLDDTLFFLFVLVALFSQSFV” the “transcriptional activation domain activity” value was 46700. For “ALYFMVIFTSHIIYTFTLILGRPIVQVIPALYGLLSFLADSDLLFILPLCRMG”, the “transcriptional activation domain activity” value was 55000. For “VHGSSFLVRYFVYITPLVLVILIPLLLGALLFKHASVAGVEMVWFCIWLEIVW”, the “transcriptional activation domain activity” value was 50100. For “HGAPPPPPPPPPPPPPVAGGPPPPPPPPPPGGAPPPPPPPPPPGGGGSAPLPA”, the “transcriptional activation domain activity” value was 44500. “YRALHQRIWDEGLYECNYRAYAIECTRYVLLFTLMWVCLYFQRYFLGAFFLGA” was tested, and the “transcriptional activation domain activity” value was 83700. In the case of “GFRFAVAVIDNIQTMKHETMGSYVTLIMNMHITQAVAVWFYSCIFTFKLGQAI”, the “transcriptional activation domain activity” value is reported as 62500. For “KQYCVRPNSGRIEPGKSVEVTVLLQAMKQEPPMDAKCRDKFLVQSVAVTADKE”, the “transcriptional activation domain activity” value was 31600. In the case of “MFTRLLRYLHCSHFCFAIATRFRGWIGLFSPLYVSCFSQPFRFRYLGCLLFLF”, the “transcriptional activation domain activity” value is reported as 52800. “RDDDAEEDKEEVPKKKNRKGQEVGGEAGKRVEEEEEEEAPKRKKKKAKAAAAD” was tested, and the “transcriptional activation domain activity” value was 13400. In the case of “MDIYGSCICPGGLALGEFFYFLFFLVLSSYYYYFLFSFLFLFSLFLSFVVWRF”, the “transcriptional activation domain activity” value is reported as 49700. In the case of “LCTQLLVKILVFSAYRFSLTVLNLVSYLTIDARMVSIVVLGKSLFPLLVFVLL”, the “transcriptional activation domain activity” value is reported as 41000. With “ARAYISLCWRMIVTKGLHRPPVSSVVDKALRKRQLKLLMVLYYNDFTNAVYSG” the “transcriptional activation domain activity” value was 52300. For “MKGVCLKVGTTKPKKPNSGERKIARVRLSSGKVITAYIQGEGHNVQQHSVVLV”, the “transcriptional activation domain activity” value was 51000. With “REGGRRGRGRARSRRQGGKREERGRTRKGRKGGENRPKREGGQGGGERARRRE” the “transcriptional activation domain activity” value was 41300. For “KKEEEGEESEPEKLPKSTKRGRKKVEEEVKAEGEEEEEEAPVAKKQKPAANGS”, the “transcriptional activation domain activity” value was < 6570. In the case of “WLSHSKKKSCDVCKHPYSFTKVYAENMPPRLPVFLLLRKVVEQAFFTIVFSIR”, the “transcriptional activation domain activity” value is reported as 55100. With “LQSPLYGRHILVAQQLVYYGCVILFPWLFISCALMFKFRGSWLLLYGMIDLSL” the “transcriptional activation domain activity” value was 44100. With “MGFDQALGLKLSPSSSGLLSTNESNAIEQFLDNLISQDMMSSNASMNSESHLH” the “transcriptional activation domain activity” value was 76500. In the case of “FSMRFVVLIDLFATFLQPASIIYVLYLIYVAAFDKATAFPMISLIMLACIYGL”, the “transcriptional activation domain activity” value is reported as 17000. In the case of “RRRWINSTIHNLFEVVLLPDLCGFCCFSMRFVVLIDLIGTLTLPVSVIYLVYL”, the “transcriptional activation domain activity” value is reported as 63200. For “SRAKVCGWADVFMVIAMHCLLGWSVTMTLYALRGGTRHIWDLEPLGVDNLIKA”, the “transcriptional activation domain activity” value was 35200. In the case of “RDCQWCAQLVRRTAIVAFNATNAVLNANMYVFVCIFLIAWLVVWKTWLWSVAL”, the “transcriptional activation domain activity” value is reported as 38300. With “KDLKDGTRAPGDESERIVVEELDMERVALDRTLGRLWRSWKKRIRSPTEPSFG” the “transcriptional activation domain activity” value was 34300. With “EEDLWTMTNLFVSPVARSLPCTSLLLCLCSLLVYLLASLTFPYLAFFLVFILF” the “transcriptional activation domain activity” value was 53000. For “QVTALVRLIVRLNCELDLNLRGFVAALCIHWIKQSAGSASLKVLLYHAVFLAD”, the “transcriptional activation domain activity” value was 44900. For “LLSGRLFLGFYAAKNILRLARAFAATRQVIYDLGKFYRSPLTAPDRIAHLFPS”, the “transcriptional activation domain activity” value was 47000. In the case of “EKERGRERERKERKVNGAWIKTKPKKRRDDSARARRHTRRRDVSSSASPTREM”, the “transcriptional activation domain activity” value is reported as 25800. For “KTQDESKPADGASTEQPAKKKRKRKQKRAQDGEGGEGAAAVGGGGGGEETQKA”, the “transcriptional activation domain activity” value was 33200. For “MGLANGDALITECGGVTFGFGFFLIFVGFWIGLDQVDGVWFLTLVWLLALFFL”, the “transcriptional activation domain activity” value was 53900. In the case of “ESERHSRRRKSVKGKGKAKEVQKKRASKDKTSKRKGKGEKRKRGEEEGRSANK”, the “transcriptional activation domain activity” value is reported as 60200. “MVQYIMSSKLLLSCINLLRSSILCTMLYLSFFGNFLLCHMIFGLWFYFMMHHE” was tested, and the “transcriptional activation domain activity” value was 53300. In the case of “VISTLYHGPQIWVPILVSTGLLAIFAEILPQYFIPRQAISWGYYCWPLIWGCM”, the “transcriptional activation domain activity” value is reported as 36700. “MEFGSWGWKSIFFIFFSFRDFMVWHGGVSFFLPYINDFYIFVLIFYCFIYSAS” was tested, and the “transcriptional activation domain activity” value was 59800. For “INILIFICLPYRNFQFFLYLVPMSCSLTPCHWQVIASKLEILLLSTYWITFVA”, the “transcriptional activation domain activity” value was 61200. “FREELVHFFKDPNFDPKLAFESSSYIVNHVLKLTLVMWRYLLVKVEHSFLIAM” was tested, and the “transcriptional activation domain activity” value was 59800. “NQLAEAHALALLHLEQRLNIAIELPIQKFILSHLPWLMPVLAKIYLSHIIVGV” was tested, and the “transcriptional activation domain activity” value was 57100. In the case of “LGVFGVALYVLSFFENFDSCHWCFHYDLWSPMAYILMRYSIEAILWSSRLALF”, the “transcriptional activation domain activity” value is reported as 70600. For “YYYFNYFYFYYFYYYFIIIIIILFYLILFLFLFLLLLLFIYFYFYFNYFYYLF”, the “transcriptional activation domain activity” value was 69700. With “LCRLWGAWGLFTFGLGVLLSAINMRMVLFYRVFITVNLTARSNSKIVNFFRKF” the “transcriptional activation domain activity” value was 51100. “EDGEQKKQVLACSFCRERKIACGRPSAHSRDRTCNQCARRCMKCEHPTESRRG” was tested, and the “transcriptional activation domain activity” value was 13800. In the case of “PFGFLTDEVKNSYLRCSYKWSFHHIPNLLIAIRERRLDPLLIWAMLAITVRFS”, the “transcriptional activation domain activity” value is reported as 79500. “GRILIMLFLWLILRLQIRIVVREVLSRPCCCPFSTITSCAALEQYQRVYDQTA” was tested, and the “transcriptional activation domain activity” value was 36700. “LYSRYCLLLICIFFVTLQFTTVRFTVRSFYFNTLSFFYLSFWCPQIYRNIMRN” was tested, and the “transcriptional activation domain activity” value was 53600. “VAECLKAMVKWPITMSPTCFHKRLIPCIFFWSQNLLGILLLLHLTEQVPILVR” was tested, and the “transcriptional activation domain activity” value was 72600. “WVLNVHLCLFYLAAFGDSAFNVISAIRKLSELPFSYSLYLFAWLFISWDLLFV” was tested, and the “transcriptional activation domain activity” value was 70500. With “GEDEEEGEEEEEEDDDDEEEKDHDEDEGDQGDGASDDADAAAQERPGKPRPGR” the “transcriptional activation domain activity” value was 8020. For “MVFGGIFFQLRGCAVGWSLGYSVSCFFLFFLFVFYAVSFLVWSGCGFLFSFFF”, the “transcriptional activation domain activity” value was 62700. “MGVYLQKLGWGYRVWRFLFWMGLSLVSFLFFICCFSLSVHTCFFFFWLGRLGW” was tested, and the “transcriptional activation domain activity” value was 27300. For “EVMKITPVQKQTRAGQRTRFKAFVAIGDSNGHVGLGVKCAKEVASAIRGAIIL”, the “transcriptional activation domain activity” value was 61100. With “MLPDEVSPWFQEVFIPTLLAYCGTFQHPWDLPQPFEDIIAELWPFVFPLSLPY” the “transcriptional activation domain activity” value was 68000. For “MMHCLRYFLLLLFLPFPSAPPYLLLLFIVSMFLYHRPCAYCTFLIMSIFSATC”, the “transcriptional activation domain activity” value was 76700. “NSTIHNLFEVVLLPDLCGFCCFSMRFVVLIDLIGTLTLPVSVVYLVYLIYVIA” was tested, and the “transcriptional activation domain activity” value was 46800. In the case of “PFLLLLPVSLFSFLFFHFFYLFVSFSFFLFCYFFYFLHFFLTFLIFLLFLTFL”, the “transcriptional activation domain activity” value is reported as 34900. “PADDPQPAPATPKRRGRPPKNPKPAEEPKPAEEDPQPVPATTPKKRGRPPKAS” was tested, and the “transcriptional activation domain activity” value was 26100. “MRLHCFFLFVFFFSLFSFLLATLCHSPLPLPFVHVSFFPPSLLPLPIFALDPF” was tested, and the “transcriptional activation domain activity” value was 33100. For “SREGKGGGAGRGKGGEQGGGMGEGKQGGGGGEAERGSREGKQRGEAGGRGKEE”, the “transcriptional activation domain activity” value was 44600. In the case of “PASRGYDRDRDYRRSPSPRERRERDRSRDRDYDRPRSPAVRATLSSSPAPAAL”, the “transcriptional activation domain activity” value is reported as 22600. “GCLLTFPNKIDWATLVIILFSETFTICLLLIKGFYWVISSAHKVGDRVLYYVA” was tested, and the “transcriptional activation domain activity” value was 50800. “EAEAEAAPEAEAAKPKNRGGRPKKAVLPAAAAPAPKEKEEPKPKATAGRKRKA” was tested, and the “transcriptional activation domain activity” value was 33400. For “LLFFFSFFFVCFKYFPPFFFSSFLSFSFYCLSILTYPIHYPPPVFGISGSFFV”, the “transcriptional activation domain activity” value was 51800. With “MAFCSIPFYSPPPPQFRFISTFSPFPRFIIGPLFHPLLARKLFDFLLIFIVSF” the “transcriptional activation domain activity” value was 62700. With “EVEAAIAAAAAEVEKVEVKAKAKAEAAAAAAAAAEAAAAAEARAAAAAAAQAA” the “transcriptional activation domain activity” value was 30700. “ESEVAVVVHIGANTTAYQFLALCAMMAPMRDLFYAFGRVTIYALAPMFHAVRV” was tested, and the “transcriptional activation domain activity” value was 73900.
